Assay results: PMC3277711 (Cell, 2012)

B1: chicken CENP-S-X complex (full-length CENP-S with CENP-X) (complex)
chain 1: MEAAGGEQRELLIQRLRAAVHYTTGCLCQDVAEDKGVLFSKQTVAAISEITFRQCENFARDLEMFARHAKRSTITSEDVKLLARRSNSLLKYITQKSDELASSNMEQKEKKKKKSSAAKGRKTEENETPVTESEDSNMA
chain 2: MEEREGGFRKETVERLLRLHFRDGRTRVNGDALLLMAELLKVFVREAAARAARQAQAEDLEKVDIEHVEKVLPQLLLDFVV
B2: chicken CENP-SΔC-X complex (complex)
chain 1: MEAAGGEQRELLIQRLRAAVHYTTGCLCQDVAEDKGVLFSKQTVAAISEITFRQCENFARDLEMFARHAKRSTITSEDVKLLARRSNSLLKYITQKSDELASSNME
chain 2: B1 chain 2

What was measured:
[1] = biological target: chicken CENP-T-W complex (CENP-T histone fold with CENP-W) (chicken) (UniProt F1NPG5); test: SEC
SEC = biological target: the molecule itself; test: SEC
crystal structure = biological target: the molecule itself; test: crystal structure

Binder | stoichiometry N (CENP-S-X dimer per CENP-T-W dimer) [1] | stoichiometry N (SEC) | stoichiometry N (crystal structure)
B1 | 1 | 2 CENP-S-X heterodimers in the oligomer | –
B2 | – | – | 2 CENP-S-X heterodimers in the oligomer
